Experimental data taken from PMC5624926.

Assay: recombinant expression of point mutants
Conditions: glycan lost; control: wild-type CD22 20-330

Q: Which expression_or_secretion does the source give for CD22 (Siglec-2): N101A here?
A: decreases
